1 substance from article PMC11330416 can be followed below.

Experiment [1] deals with NRC SARS-CoV-2 (reference strain) spike protein reference material SMT1-1 (SARS-CoV-2 (reference strain, Wuhan-Hu-1)). Put plainly: SEC-MALS; Waters BEH SEC 4.6 x 150 mm column (200 A for ACE2-1, 450 A for OMIC-1), DPBS with 0.02% Tween-20, pH 7.4, 0.4 mL/min; UV at 280 nm, MALS and RI detection; relative amounts of species from SEC-UV. On the technique in general: In gel filtration, larger molecules generally elute earlier.

The target in experiment [2] is biotinylated human angiotensin-converting enzyme 2 reference material ACE2-1 (human) (UniProt Q9BYF1). In words: SPR; ACE2-1 immobilised by its biotin on streptavidin on a biotin-coated Au chip (250-300 RU), blocked with 10 uM BSA; spike analyte in a twofold series of 12.5-200 nM at 50 uL/min, about 90 s association, 30-45 min dissociation; 10 mM HEPES pH 7-7.4, 150 mM NaCl, 3 mM EDTA, 0.05% Tween-20; 1:1 binding model; averages of two independent experiments. On the technique in general: In SPR one partner is held on a chip, and binding of the other changes the refractive index at the surface.
Sequence of biotinylated human angiotensin-converting enzyme 2 reference material ACE2-1 (human) (Q9BYF1 20-614): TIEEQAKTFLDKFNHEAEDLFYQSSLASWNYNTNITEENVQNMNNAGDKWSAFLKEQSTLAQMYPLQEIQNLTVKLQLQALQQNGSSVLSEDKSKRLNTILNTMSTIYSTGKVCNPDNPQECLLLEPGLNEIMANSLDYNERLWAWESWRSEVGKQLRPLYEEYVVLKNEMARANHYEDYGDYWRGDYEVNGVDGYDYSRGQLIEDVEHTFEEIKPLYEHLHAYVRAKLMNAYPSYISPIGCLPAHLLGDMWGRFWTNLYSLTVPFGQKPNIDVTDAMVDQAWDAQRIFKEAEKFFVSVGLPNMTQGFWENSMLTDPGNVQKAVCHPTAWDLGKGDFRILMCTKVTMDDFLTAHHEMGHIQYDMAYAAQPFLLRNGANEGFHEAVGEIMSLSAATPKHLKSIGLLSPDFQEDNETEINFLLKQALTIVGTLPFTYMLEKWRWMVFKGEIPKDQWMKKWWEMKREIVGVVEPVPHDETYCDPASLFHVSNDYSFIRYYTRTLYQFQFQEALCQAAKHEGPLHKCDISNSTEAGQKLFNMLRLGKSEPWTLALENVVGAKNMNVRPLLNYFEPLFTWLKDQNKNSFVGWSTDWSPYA

Turning to “NRC SARS-CoV-2 (reference strain) spike protein reference material SMT1-1”, the stoichiometry N – broadly, a count of units in the complex or per binding partner – in experiment [1] was determined as 3. Further, in experiment [2], the Kd (commonly a measure of binding affinity in units of concentration) worked out at 17.1 nM; the koff (in general, the rate constant with which the complex falls apart) was 0.0018 s⁻¹; the kon (usually the rate constant with which the complex forms) came out at 110000 M⁻¹ s⁻¹.
